Test results published in US20200291105A1 (published 2020).
Like-named read-outs stand apart in the source and are kept apart here. Blank lines part the entries; values can stand above or below the binder they belong to.

Columns and labels:
mouse IL-25 [1] = target: T1, mouse IL-25 (mouse, UniProt Q8VHH8 17-169); experiment: SPR
T1 chain: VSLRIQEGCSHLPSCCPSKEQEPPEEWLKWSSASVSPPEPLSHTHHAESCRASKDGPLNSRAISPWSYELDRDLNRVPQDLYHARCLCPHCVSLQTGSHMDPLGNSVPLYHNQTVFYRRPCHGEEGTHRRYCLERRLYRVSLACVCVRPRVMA

hABM125.9 = experiment: SPR
hABM125.10 = experiment: SPR
mouse IL-25 [2] = target: T1, mouse IL-25
[3] = target: T2, recombinant human IL-25 (R&D Systems) (human, UniProt Q9H293 33-177)
T2 chain: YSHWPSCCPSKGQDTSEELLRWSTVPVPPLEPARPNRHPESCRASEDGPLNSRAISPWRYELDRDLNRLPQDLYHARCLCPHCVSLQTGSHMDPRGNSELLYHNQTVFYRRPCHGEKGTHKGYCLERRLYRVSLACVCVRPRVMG

Kd (mouse IL-25 [1]): 0.0073 nM
B1: ABM125 (antibody, V domains shown)
VH: QVTLKVSGPGILQPSQTLSLTCSFSGFSLNTSGMGVGWIRQPSGKGLEWLAHIWWDDVKRYNPALKSRLTISKDTSGSQVFLKIASVDTADTATYYCARTLPHFFDYWGQGTTLTVSS
VL: DIQMTQSPAIMSASPGEKVTISCSASSSVSYMYWYQQKSGSSPKPWIYRTSNLASGVPARFSGSGSGTSYSLTISSMEAEDAATYYCKQYHSYPPTWTFGGGTKLEIKR

Kd (hABM125.9): 0.733 nM
Kd (hABM125.10): 1.06 nM
B2: mouse IL-25 (NS0) (ligand)
chain: VSLRIQEGCSHLPSCCPSKEQEPPEEWLKWSSASVSPPEPLSHTHHAESCRASKDGPLNSRAISPWSYELDRDLNRVPQDLYHARCLCPHCVSLQTGSHMDPLGNSVPLYHNQTVFYRRPCHGEEGTHRRYCLERRLYRVSLACVCVRPRVMA

Kd (mouse IL-25 [2]): 0.028 nM
B3: ABM109.2 (antibody, V domains shown)
VH: QVQLVQSGAEVKKPGASVKVSCKASGYTFSSYWIEWVRQAPGQGLEWIGQILPGIGSTNYNEKFKGRVTITADTSTSTVYMELSSLRSEDTAVYYCARGYGNYGDYWGQGTTVTVSS
VL: DIVLTQSPASLAVSPGQRATITCRASESVDSYGNSFMHWYQQKPGQPPKLLIYRASNLESGVPARFSGSGSGTDFTLTINPVEAQDTANYYCQQSNEDPLTFGAGTKLELKR

Kd [3]: 0.004 nM
B4: ABM 109 (antibody, V domains shown)
VH: EVKVVESGADLMKPGASVKISCKATGYTFSSYWIEWVKQRPGHGLEWIGQILPGIGSTNYNEKFKGKATFTADTSSNTAYMQLSSLTSEDSAVYYCARGYGNYGDYWGQGTTVTVSS
VL: DIVLTQSPASLAVSLGQRATISCRASESVDSYGNSFMHWYQQKPGQPPKLLIYRASNLESGIPARFSGSGSRTDFTLTINPVEADDVATYYCQQSNEDPLTFGAGTKLELKR
